Experimental findings from patent US20070065890A1, “Method for promoting formation of facultative heterochromatin” (priority 2005, published 2007) are described below.

For assay [1], the target named is T1, recombinant human H1b (Homo sapiens, UniProt P10412).
T1 construct: Human histone H1b and H1° were inserted into HA-Pet30c; HA (N); made in house; host or cells: E. coli BL21 (DE3)
The assay is described as follows: In vitro deacetylation of p300-acetylated recombinant H1b by SirT proteins. It counts as biochemical. To be noted: equal NAD+-exchange units measured using acetylated BSA as substrate. How it is done: (§1) Detection of H1 acetylation was performed by using 4 μg of histone H1 (Upstate Biotechnology, Inc., Lake Placid, N.Y.) as an acetylated substrate for SirT1 in the NER. Deacetylation was determined by first performing a deacetylation assay using 20 and 40 μg of H1 and 6 nmol of SirT1. H1 was then isolated in the supernatant of chilled 5% perchloric acid, TCA precipitated (Albig, et al. (1998) FEBS Lett. 435:245-250), and resuspended in buffer C containing 100 mM KCl. Deacetylated H1 was then used in a subsequent NER. In vitro acetylation of H1 or recombinant H1b expressed in E. coli was carried out by incubating 10 μg H1 with 2 nmol baculovirus-generated p300 in the presence of 0.875 μCi [H^3]-Ac-CoA (Amersham, Piscataway, N.J.) in HAT buffer (75 mM Tris-HCl [pH 8.8], 135 mM NaCl). Deacetylation was carried out with the specified enzyme as above using 1 μg of the labeled Hi. […] Counts were then determined by liquid scintillation (PERKINELMER, Wellesley, Mass.) . […] In vivo H1 acetylation was analyzed by treating 293 cells for 18 hours in media containing 5 mM nicotinamide. H1 was purified as described (Albig, et al. (1998) supra) and analyzed in the NER. […]
(§2) SirT1 activity on histone H1 was directly tested in vitro. […] The same result was observed using recombinant human H1b; however, specificity was also scored in this assay using different SirT proteins.

Assay [2] concerns histone H1. The assay is described as follows: In vitro deacetylation of p300-acetylated [3H]-labelled H1. To be noted: H1 acetylated by p300-HAT with [3H]-AcCoA, incubated with different amounts of SirT1; plateau reached. It counts as biochemical. How it is done: as §1, §2

T1 sequence (P10412 2-219): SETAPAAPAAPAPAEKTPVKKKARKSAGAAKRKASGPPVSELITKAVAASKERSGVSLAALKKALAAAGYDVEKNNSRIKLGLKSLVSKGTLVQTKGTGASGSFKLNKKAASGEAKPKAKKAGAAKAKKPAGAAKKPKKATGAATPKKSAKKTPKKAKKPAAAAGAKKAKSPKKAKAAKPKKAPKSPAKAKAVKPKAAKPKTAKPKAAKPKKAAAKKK

As to “SirT1: Human sirtuin type 1 protein, SEQ ID NO:1; purified recombinant, baculovirus-expressed”, the H1b deacetylation result in assay [1] is reported as “H1b deacetylation is specific for SirT1”. For the same substance, the “total label in H1 released” value in assay [2] is recorded as “up to 70%”.
